Target: His-tagged full-length Ajuba (UniProt Q96IF1)
Assay: pull-down

RPA70-OB½ABC, aa 234-612, sequence (P27694 234-612): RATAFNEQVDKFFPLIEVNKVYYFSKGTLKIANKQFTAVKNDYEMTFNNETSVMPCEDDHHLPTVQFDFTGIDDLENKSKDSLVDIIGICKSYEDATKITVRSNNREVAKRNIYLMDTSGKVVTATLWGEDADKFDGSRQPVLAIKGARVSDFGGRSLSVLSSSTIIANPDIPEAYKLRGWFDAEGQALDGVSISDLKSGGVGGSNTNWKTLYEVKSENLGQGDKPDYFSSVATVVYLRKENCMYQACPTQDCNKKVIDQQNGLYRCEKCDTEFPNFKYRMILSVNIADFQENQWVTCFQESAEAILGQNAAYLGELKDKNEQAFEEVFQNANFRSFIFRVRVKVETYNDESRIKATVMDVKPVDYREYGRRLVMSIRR

RPA70-OB½ABC, aa 234-612 (from UniProt P27694 234-612) (domain or fragment)
pull down relative to full-length RPA70 (100%): 58.7%

Reference: publication doi:10.1101/177840
